B1: human CD8α expressed on murine T cell hybridoma (3G8) (receptor)
chain: not shown
notes: whole, on cells; also called CD8α chains
B2: CEA liberated by PIPLC from CEA-GFP transfected 293T cells (other, UniProt P06731 35-685, looked up)
chain: KLTIESTPFNVAEGKEVLLLVHNLPQHLFGYSWYKGERVDGNRQIIGYVIGTQQATPGPAYSGREIIYPNASLLIQNIIQNDTGFYTLHVIKSDLVNEEATGQFRVYPELPKPSISSNNSKPVEDKDAVAFTCEPETQDATYLWWVNNQSLPVSPRLQLSNGNRTLTLFNVTRNDTASYKCETQNPVSARRSDSVILNVLYGPDAPTISPLNTSYRSGENLNLSCHAASNPPAQYSWFVNGTFQQSTQELFIPNITVNNSGSYTCQAHNSDTGLNRTTVTTITVYAEPPKPFITSNNSNPVEDEDAVALTCEPEIQNTTYLWWVNNQSLPVSPRLQLSNDNRTLTLLSVTRNDVGPYECGIQNELSVDHSDPVILNVLYGPDDPTISPSYTYYRPGVNLSLSCHAASNPPAQYSWLIDGNIQQHTQELFISNITEKNSGLYTCQANNSASGHSRTTVKTITVSAELPKPSISSNNSKPVEDKDAVAFTCEPEAQNTTYLWWVNGQSLPVSPRLQLSNGNRTLTLFNVTRNDARAYVCGIQNSVSANRSDPVTLDVLYGPDTPIISPPDSSYLSGANLNLSCHSASNPSPQYSWRINGIPQQHTQVLFIAKITPNNNGTYACFVSNLATGRNNSIVKSITVSASGTSPGLSA
notes: Soluble form in the supernatant of PIPLC treated transfectants; also called B9 reactive material

How the values were obtained:
[1] = biological target: B2; assay: absorption on transfected hybridoma cells, immunoblot with mAb B9
Protocol: (§1) CEA exists as a GPI anchored glycoprotein on the surface of IECs. This molecule can be cleaved using the enzyme PIPLC. […] Absorption of CEA by either CD4 or CD8 was determined by immunoblotting with mAb B9. […] These findings are consistent with functional properties previously ascribed to gp180.

[2] = biological target: T1, human CD4 expressed on murine T cell hybridoma (3G4) (human, UniProt P01730 26-458); assay: absorption of PIPLC-released CEA on transfected hybridoma cells, immunoblot with mAb B9
T1 construct: whole, on cells
Protocol: as §1

## B1
[1]
  binding result: binds

## B2
[2]
  binding result: no binding

— US20050053613A1 (MOUNT SINAI SCHOOL OF MEDICINE, published 2005)
